Patent US20210353712A1, “METHODS OF DIAGNOSING AND TREATING VASCULAR ASSOCIATED MACULOPATHY AND SYMPTOMS THEREOF” (University of Utah Research Foundation, priority 2011, published 2021)

Tested on: DQ elastin
Assay: In vitro elastin degradation assay
Format: biochemical
Description: Therefore, studies were performed to determine whether HTRA1 degrades elastin, a major component of Bruch's membrane. Recombinant HTRA1 was incubated with dye-labeled elastin at 37° C. for two hrs and the fluorescence of the released elastin peptides was monitored at 513 nm. […] In an additional positive control assay, HTRA1 elastase activity was measured by fluorescence using various concentrations of elastase enzyme starting with 0.04 ng/well of porcine pancreatic elastase and 100 ng/well of Protealmmun HtrA1. DQ Elastin substrate was 25 ug/ml.
Recombinant HtrA1 protein expressed and purified from Sf9 cells was purchased from Protealmmun (Cat. #30600103). The HtrA1 elastase activity was measured using a fluorescent EnzChekElastase Assay Kit from Invitrogen (Cat. #E12056) using the protocol provided, except substrate concentration was 12.50 ? g/mL. HtrA1 concentration was titrated from 200-12.5 ng/well in two-fold dilutions. Activity was measured in 30-minute increments for a total of 2 hours.
The explanation for the elastin degradation in both the Bruch's membrane and the choroid vessels in the HTRA1 mice is that the protease activity of overexpressed HTRA1, which is secreted from RPE, caused the degeneration. Since HTRA1 was not known to have elastase activity, an in vitro elastin degradation assay was performed using DQ elastin, a soluble elastin labeled with quenched BODIPY FL dye, as a substrate. Purified recombinant human HTRA1 degraded elastin with a specific activity of 4.4±0.8 u/mg (n=3). […] To eliminate the possibility that the depletion of the elastic layers of the choroidal vessels and Bruch's membrane was the result of downregulation of elastin expression, we analyzed the protein level of soluble elastin in the RPE/choroid of hHTRA1^+ and WT mice by western blot. […] This is similar to what has been observed in human donors with AMD and with aberrant choriocapillaris lobules.

In the case of “porcine pancreas elastase: reference elastase enzyme [reference compound]”, the Elastase specific activity (DQ elastin substrate) is reported as 135±5.5 u/mg.
“recombinant human HTRA1: purified recombinant human HTRA1 serine protease” was tested, and the “Degradation of dye-labeled elastin” value (37° C. for two hrs, fluorescence at 513 nm) was “degraded dye-labeled elastin”, the “Elastase activity, times less than porcine pancreas elastase” value (DQ elastin substrate) was ~30 times and the Elastase specific activity (DQ elastin substrate) was 4.4±0.8 u/mg.
